According to patent publication US20200308292A1:
pEC50: −log10 of the molar value.

How the values were obtained:
[1] = biological target: human insulin receptor extracellular domain (HIR ECD) (human) (UniProt P06213); experiment: ELISA, HIR ECD plated, biotinylated anti-human IgG detection
[2] = biological target: human insulin receptor extracellular domain (HIR ECD) (human) (UniProt P06213); experiment: ELISA, HIR ECD plated; against the HIR Ab as reference

pEC50 [1]	reduction in receptor binding affinity [2]	Substance
8.32	95%	GUSB-HIR Ab fusion protein (GUSB fused to the amino terminus of the HIR Ab heavy chain) (from UniProt P08236 23-633) (antibody)
9.09	–	HIR Ab-GUSB fusion protein (GUSB fused to the carboxyl terminus of the HIR Ab heavy chain) (from UniProt P08236 23-633) (antibody)
